From patent US10544202B2, “Mutant proteins and methods for their production” (Medical Research Council, priority 2013, dated 2020)

Legend:
T-REx-293 cells [1] = assay: Expression level of SERT-mCherry mutants transiently transfected into T-REx-293 cells; assay type: cell-based; settings: relative to wild-type SERT = 100%; transient transfection
Experimental: (FIG. 3A) Comparison of [^125I]-RTI55 bound to 554 detergent-solubilised Ala/Leu mutants at either 4° C. or after heating at 30° C. for 30 minutes. The data relating to thermostability (the heated samples) have been normalized to the amount of wild-type SERT remaining after heating (40%; horizontal dashed line). The expression level of wild-type SERT is indicated by the vertical dashed line and the grey column (0-200 dpm) represents non-specific binding of [^125I]-RTI55 to the parental T-REx-HEK293 cell line (no SERT). Each data point represents binding to the equivalent of 50,000 cells measured in duplicate (estimated error is ±20% in dpm). […] (FIG. 3C) Amino acid sequence of SERT (SEQ ID NO: 1) showing the positions of the thermostabilising mutations (hatched) that consistently gave >1° C. increase in Tm compared to wild-type SERT; residues in bold and hatched were used to stabilize either SAH6 and/or SAH7. N-linked glycosylation sites are indicated by the hexagons, a putative disulphide bond is shown as a grey line and the N-terminal and C-terminal fusion partners are shown (c-Myc tag and the fluorescent reporter protein mCherry) are indicated.

T-REx-293 cells [2] = assay: Cell surface expression by confocal microscopy; assay type: cell-based; set-up: key: *: low expression; **: as wild-type SERT; ***: higher expression than wild-type SERT; settings: estimation by eye of fluorescence upon confocal microscopy

Molecule	Expression (%) SERT = 100% (T-REx-293 cells [1]) [%]	Cell surface expression (T-REx-293 cells [2])
L99A: rat SERT single mutant L99A (protein) METTPLNSQKVLSECKDREDCQENGVLQKGVPTTADRAEPSQISNGYSAVPSTSAGDEASHSIPAATTTLVAEIRQGERETWGKKMDFLLSVIGYAVDAGNIWRFPYICYQNGGGAFLLPYTIMAIFGGIPLFYMELALGQYHRNGCISIWRKICPIFKGIGYAICIIAFYIASYYNTIIAWALYYLISSLTDRLPWTSCTNSWNTGNCTNYFAQDNITWTLHSTSPAEEFYLRHVLQIHQSKGLQDLGTISWQLTLCIVLIFTVIYFSIWKGVKTSGKVVWVTATFPYIVLSVLLVRGATLPGAWRGVVFYLKPNWQKLLETGVWVDAAAQIFFSLGPGFGVLLAFASYNKFNNNCYQDALVTSVVNCMTSFVSGFVIFTVLGYMAEMRNEDVSEVAKDAGPSLLFITYAEAIANMPASTFFAIIFFLMLITLGLDSTFAGLEGVITAVLDEFPHIWAKRREWFVLIVVITCVLGSLLTLTSGGAYVVTLLEEYATGPAVLTVALIEAVAVSWFYGITQFCSDVKEMLGFSPGWFWRICWVAISPLFLLFIICSFLMSPPQLRLFQYNYPHWSIVLGYCIGMSSVICIPTYIIYRLISTPGTLKERIIKSITPETPTEIPCGDIRMNAV	131	**
G278A: rat SERT single mutant G278A (protein) METTPLNSQKVLSECKDREDCQENGVLQKGVPTTADRAEPSQISNGYSAVPSTSAGDEASHSIPAATTTLVAEIRQGERETWGKKMDFLLSVIGYAVDLGNIWRFPYICYQNGGGAFLLPYTIMAIFGGIPLFYMELALGQYHRNGCISIWRKICPIFKGIGYAICIIAFYIASYYNTIIAWALYYLISSLTDRLPWTSCTNSWNTGNCTNYFAQDNITWTLHSTSPAEEFYLRHVLQIHQSKGLQDLGTISWQLTLCIVLIFTVIYFSIWKGVKTSAKVVWVTATFPYIVLSVLLVRGATLPGAWRGVVFYLKPNWQKLLETGVWVDAAAQIFFSLGPGFGVLLAFASYNKFNNNCYQDALVTSVVNCMTSFVSGFVIFTVLGYMAEMRNEDVSEVAKDAGPSLLFITYAEAIANMPASTFFAIIFFLMLITLGLDSTFAGLEGVITAVLDEFPHIWAKRREWFVLIVVITCVLGSLLTLTSGGAYVVTLLEEYATGPAVLTVALIEAVAVSWFYGITQFCSDVKEMLGFSPGWFWRICWVAISPLFLLFIICSFLMSPPQLRLFQYNYPHWSIVLGYCIGMSSVICIPTYIIYRLISTPGTLKERIIKSITPETPTEIPCGDIRMNAV	39	*
A169L: rat SERT single mutant A169L (protein) METTPLNSQKVLSECKDREDCQENGVLQKGVPTTADRAEPSQISNGYSAVPSTSAGDEASHSIPAATTTLVAEIRQGERETWGKKMDFLLSVIGYAVDLGNIWRFPYICYQNGGGAFLLPYTIMAIFGGIPLFYMELALGQYHRNGCISIWRKICPIFKGIGYAICIILFYIASYYNTIIAWALYYLISSLTDRLPWTSCTNSWNTGNCTNYFAQDNITWTLHSTSPAEEFYLRHVLQIHQSKGLQDLGTISWQLTLCIVLIFTVIYFSIWKGVKTSGKVVWVTATFPYIVLSVLLVRGATLPGAWRGVVFYLKPNWQKLLETGVWVDAAAQIFFSLGPGFGVLLAFASYNKFNNNCYQDALVTSVVNCMTSFVSGFVIFTVLGYMAEMRNEDVSEVAKDAGPSLLFITYAEAIANMPASTFFAIIFFLMLITLGLDSTFAGLEGVITAVLDEFPHIWAKRREWFVLIVVITCVLGSLLTLTSGGAYVVTLLEEYATGPAVLTVALIEAVAVSWFYGITQFCSDVKEMLGFSPGWFWRICWVAISPLFLLFIICSFLMSPPQLRLFQYNYPHWSIVLGYCIGMSSVICIPTYIIYRLISTPGTLKERIIKSITPETPTEIPCGDIRMNAV	31	**
F311A: rat SERT single mutant F311A (protein) METTPLNSQKVLSECKDREDCQENGVLQKGVPTTADRAEPSQISNGYSAVPSTSAGDEASHSIPAATTTLVAEIRQGERETWGKKMDFLLSVIGYAVDLGNIWRFPYICYQNGGGAFLLPYTIMAIFGGIPLFYMELALGQYHRNGCISIWRKICPIFKGIGYAICIIAFYIASYYNTIIAWALYYLISSLTDRLPWTSCTNSWNTGNCTNYFAQDNITWTLHSTSPAEEFYLRHVLQIHQSKGLQDLGTISWQLTLCIVLIFTVIYFSIWKGVKTSGKVVWVTATFPYIVLSVLLVRGATLPGAWRGVVAYLKPNWQKLLETGVWVDAAAQIFFSLGPGFGVLLAFASYNKFNNNCYQDALVTSVVNCMTSFVSGFVIFTVLGYMAEMRNEDVSEVAKDAGPSLLFITYAEAIANMPASTFFAIIFFLMLITLGLDSTFAGLEGVITAVLDEFPHIWAKRREWFVLIVVITCVLGSLLTLTSGGAYVVTLLEEYATGPAVLTVALIEAVAVSWFYGITQFCSDVKEMLGFSPGWFWRICWVAISPLFLLFIICSFLMSPPQLRLFQYNYPHWSIVLGYCIGMSSVICIPTYIIYRLISTPGTLKERIIKSITPETPTEIPCGDIRMNAV	492	**
G115A: rat SERT single mutant G115A (protein) METTPLNSQKVLSECKDREDCQENGVLQKGVPTTADRAEPSQISNGYSAVPSTSAGDEASHSIPAATTTLVAEIRQGERETWGKKMDFLLSVIGYAVDLGNIWRFPYICYQNGGAAFLLPYTIMAIFGGIPLFYMELALGQYHRNGCISIWRKICPIFKGIGYAICIIAFYIASYYNTIIAWALYYLISSLTDRLPWTSCTNSWNTGNCTNYFAQDNITWTLHSTSPAEEFYLRHVLQIHQSKGLQDLGTISWQLTLCIVLIFTVIYFSIWKGVKTSGKVVWVTATFPYIVLSVLLVRGATLPGAWRGVVFYLKPNWQKLLETGVWVDAAAQIFFSLGPGFGVLLAFASYNKFNNNCYQDALVTSVVNCMTSFVSGFVIFTVLGYMAEMRNEDVSEVAKDAGPSLLFITYAEAIANMPASTFFAIIFFLMLITLGLDSTFAGLEGVITAVLDEFPHIWAKRREWFVLIVVITCVLGSLLTLTSGGAYVVTLLEEYATGPAVLTVALIEAVAVSWFYGITQFCSDVKEMLGFSPGWFWRICWVAISPLFLLFIICSFLMSPPQLRLFQYNYPHWSIVLGYCIGMSSVICIPTYIIYRLISTPGTLKERIIKSITPETPTEIPCGDIRMNAV	327	***
L405A: rat SERT single mutant L405A (protein) METTPLNSQKVLSECKDREDCQENGVLQKGVPTTADRAEPSQISNGYSAVPSTSAGDEASHSIPAATTTLVAEIRQGERETWGKKMDFLLSVIGYAVDLGNIWRFPYICYQNGGGAFLLPYTIMAIFGGIPLFYMELALGQYHRNGCISIWRKICPIFKGIGYAICIIAFYIASYYNTIIAWALYYLISSLTDRLPWTSCTNSWNTGNCTNYFAQDNITWTLHSTSPAEEFYLRHVLQIHQSKGLQDLGTISWQLTLCIVLIFTVIYFSIWKGVKTSGKVVWVTATFPYIVLSVLLVRGATLPGAWRGVVFYLKPNWQKLLETGVWVDAAAQIFFSLGPGFGVLLAFASYNKFNNNCYQDALVTSVVNCMTSFVSGFVIFTVLGYMAEMRNEDVSEVAKDAGPSALFITYAEAIANMPASTFFAIIFFLMLITLGLDSTFAGLEGVITAVLDEFPHIWAKRREWFVLIVVITCVLGSLLTLTSGGAYVVTLLEEYATGPAVLTVALIEAVAVSWFYGITQFCSDVKEMLGFSPGWFWRICWVAISPLFLLFIICSFLMSPPQLRLFQYNYPHWSIVLGYCIGMSSVICIPTYIIYRLISTPGTLKERIIKSITPETPTEIPCGDIRMNAV	543	***
L406A: rat SERT single mutant L406A (protein) METTPLNSQKVLSECKDREDCQENGVLQKGVPTTADRAEPSQISNGYSAVPSTSAGDEASHSIPAATTTLVAEIRQGERETWGKKMDFLLSVIGYAVDLGNIWRFPYICYQNGGGAFLLPYTIMAIFGGIPLFYMELALGQYHRNGCISIWRKICPIFKGIGYAICIIAFYIASYYNTIIAWALYYLISSLTDRLPWTSCTNSWNTGNCTNYFAQDNITWTLHSTSPAEEFYLRHVLQIHQSKGLQDLGTISWQLTLCIVLIFTVIYFSIWKGVKTSGKVVWVTATFPYIVLSVLLVRGATLPGAWRGVVFYLKPNWQKLLETGVWVDAAAQIFFSLGPGFGVLLAFASYNKFNNNCYQDALVTSVVNCMTSFVSGFVIFTVLGYMAEMRNEDVSEVAKDAGPSLAFITYAEAIANMPASTFFAIIFFLMLITLGLDSTFAGLEGVITAVLDEFPHIWAKRREWFVLIVVITCVLGSLLTLTSGGAYVVTLLEEYATGPAVLTVALIEAVAVSWFYGITQFCSDVKEMLGFSPGWFWRICWVAISPLFLLFIICSFLMSPPQLRLFQYNYPHWSIVLGYCIGMSSVICIPTYIIYRLISTPGTLKERIIKSITPETPTEIPCGDIRMNAV	87	*
P499A: rat SERT single mutant P499A (protein) METTPLNSQKVLSECKDREDCQENGVLQKGVPTTADRAEPSQISNGYSAVPSTSAGDEASHSIPAATTTLVAEIRQGERETWGKKMDFLLSVIGYAVDLGNIWRFPYICYQNGGGAFLLPYTIMAIFGGIPLFYMELALGQYHRNGCISIWRKICPIFKGIGYAICIIAFYIASYYNTIIAWALYYLISSLTDRLPWTSCTNSWNTGNCTNYFAQDNITWTLHSTSPAEEFYLRHVLQIHQSKGLQDLGTISWQLTLCIVLIFTVIYFSIWKGVKTSGKVVWVTATFPYIVLSVLLVRGATLPGAWRGVVFYLKPNWQKLLETGVWVDAAAQIFFSLGPGFGVLLAFASYNKFNNNCYQDALVTSVVNCMTSFVSGFVIFTVLGYMAEMRNEDVSEVAKDAGPSLLFITYAEAIANMPASTFFAIIFFLMLITLGLDSTFAGLEGVITAVLDEFPHIWAKRREWFVLIVVITCVLGSLLTLTSGGAYVVTLLEEYATGAAVLTVALIEAVAVSWFYGITQFCSDVKEMLGFSPGWFWRICWVAISPLFLLFIICSFLMSPPQLRLFQYNYPHWSIVLGYCIGMSSVICIPTYIIYRLISTPGTLKERIIKSITPETPTEIPCGDIRMNAV	65	**
